Here are results for two substances from patent US20220315554A1, “COMPOUNDS COMPRISING A […] LIGAND AND USE THEREOF” (priority 2019, published 2022).

The target in assay [1] is T1, Caspase-6 (Homo sapiens (Human)) (UniProt P55212).
T1 sequence: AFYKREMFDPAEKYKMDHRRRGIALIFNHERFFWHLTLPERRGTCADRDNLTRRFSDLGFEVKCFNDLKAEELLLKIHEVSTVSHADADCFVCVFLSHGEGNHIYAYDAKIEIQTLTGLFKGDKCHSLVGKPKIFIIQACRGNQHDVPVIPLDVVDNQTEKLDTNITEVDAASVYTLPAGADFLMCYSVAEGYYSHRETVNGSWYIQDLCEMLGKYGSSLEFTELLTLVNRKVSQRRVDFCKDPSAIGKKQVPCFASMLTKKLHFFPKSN

For assay [2], the target named is Matrix metalloprotease 9 (mutant Q279R) (Homo sapiens (Human)) (UniProt P14780).
For assay [3], the target named is Ubiquitin carboxy-terminal hydrolase 14 (Homo sapiens (Human)) (UniProt P54578).
In assay [4] the target is Activated Protein C (Homo sapiens (Human)) (UniProt P04070).
Sequence of Activated Protein C (Homo sapiens (Human)) (P04070 43-461): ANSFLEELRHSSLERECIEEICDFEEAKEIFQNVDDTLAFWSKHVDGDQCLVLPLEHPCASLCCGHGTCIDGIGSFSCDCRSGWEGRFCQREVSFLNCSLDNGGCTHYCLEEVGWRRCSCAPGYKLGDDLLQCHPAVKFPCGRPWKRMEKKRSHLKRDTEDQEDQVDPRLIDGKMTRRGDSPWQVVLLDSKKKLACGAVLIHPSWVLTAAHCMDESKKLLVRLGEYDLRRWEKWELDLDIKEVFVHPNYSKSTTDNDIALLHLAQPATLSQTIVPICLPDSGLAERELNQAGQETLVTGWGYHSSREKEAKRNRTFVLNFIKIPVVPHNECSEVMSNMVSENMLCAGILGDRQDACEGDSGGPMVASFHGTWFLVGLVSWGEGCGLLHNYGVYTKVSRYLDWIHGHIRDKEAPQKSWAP
Assay [5] concerns the target Ubiquitin carboxy-terminal hydrolase 10 (Homo sapiens (Human)) (UniProt Q14694).
The target of assay [6] is T2, DPP3 (Homo sapiens (Human)) (UniProt Q9NY33).
T2 sequence: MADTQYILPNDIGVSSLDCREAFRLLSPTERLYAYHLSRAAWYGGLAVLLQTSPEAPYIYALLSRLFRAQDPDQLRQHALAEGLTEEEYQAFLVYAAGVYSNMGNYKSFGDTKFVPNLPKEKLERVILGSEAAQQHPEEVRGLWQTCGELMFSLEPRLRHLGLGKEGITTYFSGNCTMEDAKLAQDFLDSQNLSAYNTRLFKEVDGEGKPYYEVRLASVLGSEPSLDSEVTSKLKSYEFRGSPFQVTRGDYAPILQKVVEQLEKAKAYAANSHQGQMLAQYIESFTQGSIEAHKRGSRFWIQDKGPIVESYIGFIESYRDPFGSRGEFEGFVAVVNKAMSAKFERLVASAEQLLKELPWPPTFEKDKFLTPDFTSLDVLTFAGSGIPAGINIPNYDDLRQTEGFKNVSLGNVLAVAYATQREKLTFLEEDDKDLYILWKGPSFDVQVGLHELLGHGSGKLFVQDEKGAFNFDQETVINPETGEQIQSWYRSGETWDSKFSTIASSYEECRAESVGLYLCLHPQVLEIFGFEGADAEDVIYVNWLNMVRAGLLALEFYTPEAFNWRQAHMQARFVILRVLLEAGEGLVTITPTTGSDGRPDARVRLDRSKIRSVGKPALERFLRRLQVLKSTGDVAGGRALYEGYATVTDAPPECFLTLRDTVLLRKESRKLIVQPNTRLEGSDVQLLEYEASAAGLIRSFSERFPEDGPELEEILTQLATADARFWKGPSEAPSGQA

For assay [7], the target named is T3, Ubiquitin carboxy-terminal hydrolase 2 (Homo sapiens (Human)) (UniProt O75604).
T3 sequence: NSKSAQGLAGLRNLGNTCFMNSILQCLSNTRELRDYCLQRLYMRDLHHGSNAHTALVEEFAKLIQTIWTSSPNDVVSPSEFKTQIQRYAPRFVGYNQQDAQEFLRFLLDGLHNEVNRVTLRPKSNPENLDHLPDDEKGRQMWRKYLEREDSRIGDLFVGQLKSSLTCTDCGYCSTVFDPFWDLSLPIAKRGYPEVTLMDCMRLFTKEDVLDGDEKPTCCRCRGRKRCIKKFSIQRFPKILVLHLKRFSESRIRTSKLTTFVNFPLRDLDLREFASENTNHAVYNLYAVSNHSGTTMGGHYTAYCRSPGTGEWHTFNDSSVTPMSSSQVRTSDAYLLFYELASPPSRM

For assay [8], the target named is Cathepsin V (Homo sapiens (Human)) (UniProt O60911).
For assay [9], the target named is FAP (Homo sapiens (Human)) (UniProt Q12884).
Assay [10] has as its target T4, Recombinant human FAP (R&D systems, #3715-SE) (human).
T4 sequence: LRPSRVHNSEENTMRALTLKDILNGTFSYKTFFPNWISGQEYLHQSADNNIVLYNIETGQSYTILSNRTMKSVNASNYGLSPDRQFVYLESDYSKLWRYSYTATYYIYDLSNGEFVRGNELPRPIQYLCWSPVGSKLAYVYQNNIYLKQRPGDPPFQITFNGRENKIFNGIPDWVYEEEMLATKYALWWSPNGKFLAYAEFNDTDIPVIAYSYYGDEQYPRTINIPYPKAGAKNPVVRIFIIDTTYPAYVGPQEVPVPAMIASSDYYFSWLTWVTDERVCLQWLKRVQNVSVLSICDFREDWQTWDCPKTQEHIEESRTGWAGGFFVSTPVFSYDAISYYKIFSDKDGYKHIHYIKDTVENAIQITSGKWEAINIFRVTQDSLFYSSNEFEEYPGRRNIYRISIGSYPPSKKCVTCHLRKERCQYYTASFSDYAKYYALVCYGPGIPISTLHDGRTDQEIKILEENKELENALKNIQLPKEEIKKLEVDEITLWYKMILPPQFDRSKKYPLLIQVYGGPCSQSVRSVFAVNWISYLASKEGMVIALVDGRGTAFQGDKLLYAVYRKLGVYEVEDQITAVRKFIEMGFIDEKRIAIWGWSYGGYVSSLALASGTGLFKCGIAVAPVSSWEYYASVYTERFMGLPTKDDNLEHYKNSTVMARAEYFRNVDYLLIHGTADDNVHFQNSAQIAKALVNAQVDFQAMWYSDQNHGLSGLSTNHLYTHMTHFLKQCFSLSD

Sequence of Ubiquitin carboxy-terminal hydrolase 10 (Homo sapiens (Human)) (Q14694 whole entry): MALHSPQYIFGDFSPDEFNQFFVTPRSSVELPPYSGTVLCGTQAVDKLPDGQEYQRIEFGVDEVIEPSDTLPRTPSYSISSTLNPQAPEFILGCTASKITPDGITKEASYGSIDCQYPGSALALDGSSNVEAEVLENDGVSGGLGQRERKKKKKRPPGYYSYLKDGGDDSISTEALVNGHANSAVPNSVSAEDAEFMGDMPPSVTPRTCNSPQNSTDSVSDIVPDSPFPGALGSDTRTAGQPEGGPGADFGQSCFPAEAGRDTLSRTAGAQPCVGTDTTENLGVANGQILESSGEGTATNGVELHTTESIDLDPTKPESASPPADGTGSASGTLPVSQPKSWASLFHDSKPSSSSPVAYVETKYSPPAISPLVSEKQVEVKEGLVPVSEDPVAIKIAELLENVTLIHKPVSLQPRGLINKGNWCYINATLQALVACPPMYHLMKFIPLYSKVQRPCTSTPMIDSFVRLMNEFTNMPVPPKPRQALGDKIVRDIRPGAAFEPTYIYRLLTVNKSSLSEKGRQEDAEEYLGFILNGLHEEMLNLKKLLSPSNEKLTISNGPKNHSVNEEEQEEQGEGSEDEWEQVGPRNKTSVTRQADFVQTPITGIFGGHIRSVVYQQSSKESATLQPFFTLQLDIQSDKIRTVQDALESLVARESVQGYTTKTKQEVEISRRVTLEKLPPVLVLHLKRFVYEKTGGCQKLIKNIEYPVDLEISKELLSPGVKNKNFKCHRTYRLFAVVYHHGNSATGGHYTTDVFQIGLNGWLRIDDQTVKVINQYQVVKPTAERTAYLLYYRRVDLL

“Hex-[Cys(tMeBn(DOTA-AET))-Pro-Pro-Thr-Gln-Phe-Cys]-OH (peptide)”: the Percentage inhibition (%) at 10 µM in assay [1] was -3%; in [2], 2%; in [3], 2%; in assay [4] it was 1%; in assay [5], -1%; in assay [6], -1%. For the same substance, the Percentage inhibition (%) at 10 µM in assay [7] and in assay [8] was -1% in each case. Moreover, the Percentage inhibition (%) at 1 µM in assay [9] came out at 97%.

“Hex-[Cys(tMeBn(DOTA-PP))-Pro-Pro-Thr-Gln-Phe-Cys]-Asp-NH2 (peptide)”: the Percentage inhibition (%) at 10 µM in assay [1] is -1%; in assay [2], 2%; in assay [3] it was 5%; in assay [4] it was 8%; in assay [5] it was 5%; in [7], 7%. Moreover, the Percentage inhibition (%) at 10 µM in [8] was -18%. In addition, the Percentage inhibition (%) at 1 µM in [9] is 98%. Besides, in assay [10], the pIC50 Category (Activity) is more than 8 pIC50.
